T1: amino-terminally FLAG-tagged human p75 (human, UniProt P08138 29-427)
T1 construct: also called FLAG-tagged p75; FLAG-p75; not shown: FLAG tag
T1 sequence: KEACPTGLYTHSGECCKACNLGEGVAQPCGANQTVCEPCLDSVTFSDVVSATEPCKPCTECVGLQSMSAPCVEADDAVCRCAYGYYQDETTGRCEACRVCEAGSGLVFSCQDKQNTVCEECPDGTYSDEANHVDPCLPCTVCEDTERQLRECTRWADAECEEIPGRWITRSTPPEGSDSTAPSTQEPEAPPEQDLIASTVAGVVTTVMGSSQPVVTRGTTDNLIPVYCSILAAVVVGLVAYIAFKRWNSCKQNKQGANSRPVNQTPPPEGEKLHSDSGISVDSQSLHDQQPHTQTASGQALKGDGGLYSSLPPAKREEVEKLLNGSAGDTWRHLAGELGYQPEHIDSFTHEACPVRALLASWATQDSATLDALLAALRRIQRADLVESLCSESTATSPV

T2: Nogo receptor, endogenous in P9 cerebellum (UniProt Q99PI8 27-447)
T2 construct: also called NgR; the Nogo receptor
T2 sequence (looked up): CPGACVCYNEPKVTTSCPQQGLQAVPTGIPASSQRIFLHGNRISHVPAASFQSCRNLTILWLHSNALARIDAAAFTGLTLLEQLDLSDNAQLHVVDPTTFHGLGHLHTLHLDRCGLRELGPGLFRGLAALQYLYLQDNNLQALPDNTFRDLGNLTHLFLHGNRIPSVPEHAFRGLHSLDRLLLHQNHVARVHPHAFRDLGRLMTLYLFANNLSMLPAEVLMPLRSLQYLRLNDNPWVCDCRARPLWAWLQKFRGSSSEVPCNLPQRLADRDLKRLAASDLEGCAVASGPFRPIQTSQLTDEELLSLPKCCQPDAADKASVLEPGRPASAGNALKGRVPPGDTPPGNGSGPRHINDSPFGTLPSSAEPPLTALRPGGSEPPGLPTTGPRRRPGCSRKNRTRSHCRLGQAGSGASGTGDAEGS

B1: recombinant human GST-Rho GDI (other)
chain: MAEQEPTAEQLAQIAAENEEDEHSVNYKPPAQKSIQEIQELDKDDESLRKYKEALLGRVAVSADPNVPNVVVTGLTLVCSSAPGPLELDLTGDLESFKKQSFVLKEGVEYRIKISFRVNREIVSGMKYIQHTYRKGVKIDKTDYMVGSYGPRAEEYEFLTPVEEAPKGMLARGSYSIKSRFTDDDKTDHLSWEWNLTIKKDWKD
notes: Bought (Cytoskeleton); also called recombinant Rho GDI; not shown: glutathione S-transferase (GST) fusion moiety
B2: Rho GDI, endogenous in mouse post-natal cerebellar neurons (other, UniProt Q99PT1 2-204, looked up)
chain: AEQEPTAEQLAQIAAENEEDEHSVNYKPPAQKSIQEIQELDKDDESLRKYKEALLGRVAVSADPNVPNVIVTRLTLVCSTAPGPLELDLTGDLESFKKQSFVLKEGVEYRIKISFRVNREIVSGMKYIQHTYRKGVKIDKTDYMVGSYGPRAEEYEFLTPMEEAPKGMLARGSYNIKSRFTDDDKTDHLSWEWNLTIKKEWKD
B3: endogenous p75 of mouse post-natal (P9) cerebellum / cerebellar neurons (receptor, UniProt Q9Z0W1 32-427, looked up)
chain: KETCSTGMYTHSGECCKACNLGEGVAQPCGANQTVCEPCLDSVTFSDVVSATEPCKPCTECLGLQSMSAPCVEADDAVCRCSYGYYQDEETGRCEACSVCGVGSGLVFSCQDKQNTVCEECPEGTYSDEANHVDPCLPCTVCEDTERQLRECTPWADAECEEIPGRWITRSTPPEGSDVTTPSTQEPEAPPERDLIASTVADTVTTVMGSSQPVVTRGTADNLIPVYCSILAAVVVGLVAYIAFKRWNSCKQNKQGANSRPVNQTPPPEGEKLHSDSGISVDSQSLHDQQTHTQTASGQALKGDGNLYSSLPLTKREEVEKLLNGDTWRHLAGELGYQPEHIDSFTHEACPVRALLASWGAQDSATLDALLAALRRIQRADIVESLCSESTATSPV
notes: Endogenous protein in lysates; also called p75NTR

Assays:
[1] = biological target: T1, amino-terminally FLAG-tagged human p75; assay: co-precipitation: p75 precipitated from transfected 293T cells (anti-FLAG, protein A sepharose) incubated with GST-Rho GDI, anti-GST blot
Experimental: The resultant precipitates were electrophoretically transferred to polyvinylidene difluoride membranes after SDS/PAGE and were immunoblotted with the anti-GST antibody (Sigma). To examine the nucleotide dependency, GST-RhoA was preloaded with the appropriate nucleotide, and EDTA was replaced with 10 mM MgCl₂.

[2] = biological target: B3; assay: figure legend (FIG. 6C): co-immunoprecipitation of p75 and Rho GDI from cerebellar neurons
Experimental: The lysates were centrifuged at 13,000×g for 20 min, and the supernatants were collected. […] The immunocomplex was collected with protein A sepharose (Amersham Pharmacia). The suspension was centrifuged at 1,000×g for 5 min. The pellets were washed 4 times with lysis buffer, and subjected to SDS-PAGE, followed by immunoblot analysis using anti-Rho GDIα antibody (Sigma) or anti-RhoA antibody (Santa Cruz Biotechnology).

[3] = biological target: T2, Nogo receptor, endogenous in P9 …; assay: figure legend (FIG. 11C)

Binder: B1
- binding result [1]: binds

Binder: B2
- binding result [2]: binds

Binder: B3
- binding result [3]: binds

Source: patent US20070054848A1 (published 2007)
